In the supplement of paper PMC9112550, “Optimization of the antimicrobial peptide Bac7 by deep mutational scanning” (BMC Biology, 2022):

Test system: Escherichia coli TOP10
Assay: shrunken log2 fold change of peptide-encoding DNA abundance (4.5 h post-induction vs induction); higher = less antimicrobial activity (less host growth inhibition)
Settings: time post-induction: 4.5 h; library: site-saturation at positions 5, 18, 19, 20
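Note: peptides expressed intracellularly from a pBAD plasmid library in pooled LB shake-flask culture, induced with 0.3% L-arabinose, DNA abundance read by NGS, three biological replicates, DESeq2 with apeglm shrinkage.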

Row | Sequence | shrunken log2 fold change
1 | RRIRRRPPRLPRPRPRPHGVPRP | 0.055
2 | RRIRQRPPRLPRPRPRPTHSPRP | 0.415
3 | RRIRWRPPRLPRPRPRPCFRPRP | 0.021
4 | RRIRKRPPRLPRPRPRPDWIPRP | -0.0252
5 | RRIRLRPPRLPRPRPRPMNLPRP | -0.31
6 | RRIRTRPPRLPRPRPRPIKPPRP | -0.0369
7 | RRIRDRPPRLPRPRPRPGVGPRP | 0.519
8 | RRIRWRPPRLPRPRPRPGIDPRP | 0.117
9 | RRIRARPPRLPRPRPRPPTPPRP | 1.33
10 | RRIRPRPPRLPRPRPRPAIHPRP | -0.196
11 | RRIRERPPRLPRPRPRPTNTPRP | -0.697
12 | RRIRSRPPRLPRPRPRPISEPRP | -0.0465
13 | RRIRSRPPRLPRPRPRPWWHPRP | -0.166
14 | RRIRSRPPRLPRPRPRPVNSPRP | -0.365
15 | RRIRHRPPRLPRPRPRPKMHPRP | -0.0718
16 | RRIRYRPPRLPRPRPRPYKYPRP | -0.238
17 | RRIRLRPPRLPRPRPRPRFCPRP | -0.0895
18 | RRIRHRPPRLPRPRPRPQASPRP | 0.0479
19 | RRIRNRPPRLPRPRPRPVIPPRP | -0.462
20 | RRIRVRPPRLPRPRPRPTDNPRP | -0.363
21 | RRIRSRPPRLPRPRPRPKNVPRP | -0.29
22 | RRIRVRPPRLPRPRPRPFMCPRP | -0.325
23 | RRIRLRPPRLPRPRPRPDWCPRP | 0.0707
24 | RRIRLRPPRLPRPRPRPVEFPRP | 0.0713
25 | RRIRYRPPRLPRPRPRPNQHPRP | -1.18

Row | Sequence | shrunken log2 fold change
26 | RRIRSRPPRLPRPRPRPGEQPRP | 0.00836
27 | RRIRLRPPRLPRPRPRPRPIPRP | 0.384
28 | RRIRPRPPRLPRPRPRPKTCPRP | -0.124
29 | RRIRNRPPRLPRPRPRPIKAPRP | -0.0167
30 | RRIRRRPPRLPRPRPRPEQLPRP | 0.203
31 | RRIRGRPPRLPRPRPRPPSRPRP | 1.11
32 | RRIRARPPRLPRPRPRPEGCPRP | 1.31
33 | RRIRFRPPRLPRPRPRPYCEPRP | -0.0267
34 | RRIRYRPPRLPRPRPRPSEAPRP | -0.096
35 | RRIRTRPPRLPRPRPRPCRYPRP | 0.0413
36 | RRIRVRPPRLPRPRPRPERAPRP | 0.264
37 | RRIRKRPPRLPRPRPRPGGWPRP | 0.62
38 | RRIRDRPPRLPRPRPRPDFLPRP | 0.136
39 | RRIRLRPPRLPRPRPRPVMNPRP | -0.18
40 | RRIRSRPPRLPRPRPRPMCNPRP | -0.287
41 | RRIRRRPPRLPRPRPRPIDIPRP | -0.118
42 | RRIRHRPPRLPRPRPRPYNEPRP | 0.0187
43 | RRIRKRPPRLPRPRPRPGDRPRP | 0.886
44 | RRIRLRPPRLPRPRPRPFTMPRP | -0.764
45 | RRIRHRPPRLPRPRPRPCYTPRP | 0.0618
46 | RRIRNRPPRLPRPRPRPYFPPRP | -0.143
47 | RRIRKRPPRLPRPRPRPPITPRP | 0.0882
48 | RRIRSRPPRLPRPRPRPYLGPRP | -0.204
49 | RRIRIRPPRLPRPRPRPAPDPRP | 0.248
50 | RRIRWRPPRLPRPRPRPMMFPRP | -0.117

Row | Sequence | shrunken log2 fold change
51 | RRIRDRPPRLPRPRPRPEAEPRP | 1.67
52 | RRIRNRPPRLPRPRPRPESAPRP | -0.0184
53 | RRIRARPPRLPRPRPRPCMQPRP | -0.125
54 | RRIRERPPRLPRPRPRPYQSPRP | -0.0109
55 | RRIRQRPPRLPRPRPRPDWYPRP | -0.32
56 | RRIRWRPPRLPRPRPRPEKVPRP | 0.115
57 | RRIRHRPPRLPRPRPRPKIGPRP | 0.0776
58 | RRIRMRPPRLPRPRPRPYNCPRP | -0.0909
59 | RRIRTRPPRLPRPRPRPEQCPRP | -0.01
60 | RRIRERPPRLPRPRPRPETNPRP | -0.000368
61 | RRIRKRPPRLPRPRPRPLLLPRP | -0.105
62 | RRIRHRPPRLPRPRPRPLQSPRP | -0.0699
63 | RRIRCRPPRLPRPRPRPTMQPRP | -0.0203
64 | RRIRCRPPRLPRPRPRPRWHPRP | -0.00459
65 | RRIRARPPRLPRPRPRPLRCPRP | 0.242
66 | RRIRNRPPRLPRPRPRPAPDPRP | 0.147
67 | RRIRQRPPRLPRPRPRPPLGPRP | 0.547
68 | RRIRQRPPRLPRPRPRPEKFPRP | -0.029
69 | RRIRQRPPRLPRPRPRPIYLPRP | -0.163
70 | RRIRQRPPRLPRPRPRPVHFPRP | -0.00916
71 | RRIRWRPPRLPRPRPRPDEIPRP | 0.0148
72 | RRIRPRPPRLPRPRPRPLMNPRP | -0.47
73 | RRIRKRPPRLPRPRPRPVIYPRP | -0.0353
74 | RRIRARPPRLPRPRPRPKYTPRP | -0.013
75 | RRIRSRPPRLPRPRPRPQTEPRP | -0.0463
